# In publication PMC8670446 (2021):
# B1: Sis1 (natural protein)
# chain: MVKETKLYDLLGVSPSANEQELKKGYRKAALKYHPDKPTGDTEKFKEISEAFEILNDPQKREIYDQYGLEAARSGGPSFGPGGPGGAGGAGGFPGGAGGFSGGHAFSNEDAFNIFSQFFGGSSPFGGADDSGFSFSSYPSGGGAGMGGMPGGMGGMHGGMGGMPGGFRSASSSPTYPEEETVQVNLPVSLEDLFVGKKKSFKIGRKGPHGASEKTQIDIQLKPGWKAGTKITYKNQGDYNPQTGRRKTLQFVIQEKSHPNFKRDGDDLIYTLPLSFKESLLGFSKTIQTIDGRTLPLSRVQPVQPSQTSTYPGQGMPTPKNPSQRGNLIVKYKVDYPISLNDAQKRAIDENF
# Target: Ssa1 (S. cerevisiae, UniProt P10591 1-642)
# Test: BLI; apparent KD from equilibrium levels; His6-SUMO-Ssa1 immobilized
# Chain of Ssa1 (P10591 whole entry): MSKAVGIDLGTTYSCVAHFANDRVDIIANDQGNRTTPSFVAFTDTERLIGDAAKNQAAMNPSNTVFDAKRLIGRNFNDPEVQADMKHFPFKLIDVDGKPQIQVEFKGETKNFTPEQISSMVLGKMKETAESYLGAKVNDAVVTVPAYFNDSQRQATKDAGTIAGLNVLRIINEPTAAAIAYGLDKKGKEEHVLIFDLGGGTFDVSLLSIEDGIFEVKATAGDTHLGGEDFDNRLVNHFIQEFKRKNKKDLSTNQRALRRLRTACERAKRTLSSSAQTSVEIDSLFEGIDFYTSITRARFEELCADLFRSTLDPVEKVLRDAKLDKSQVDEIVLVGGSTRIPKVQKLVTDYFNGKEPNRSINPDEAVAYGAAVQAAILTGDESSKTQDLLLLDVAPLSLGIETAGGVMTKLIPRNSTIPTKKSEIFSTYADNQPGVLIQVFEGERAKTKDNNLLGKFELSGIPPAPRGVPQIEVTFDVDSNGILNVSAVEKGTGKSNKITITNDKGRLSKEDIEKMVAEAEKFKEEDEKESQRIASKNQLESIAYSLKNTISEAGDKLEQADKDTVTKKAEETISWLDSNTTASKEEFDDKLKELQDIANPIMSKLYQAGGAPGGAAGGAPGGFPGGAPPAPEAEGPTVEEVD
binder,measurement,value
B1,Kd,210 nM
